Measured values from the RNAGym collection of RNA variant scans (doi:10.1093/nar/gkz1192).

B1: CPEB3 Ribozyme (parent)
chain: UAACAGGGGGCCACAGCAGAAGCGUUCACGUCGCAGCCCCUGUCAGAUUCUGGUGAAUCUGCGAAUUCUGCUGUAUAUCUC

Variants of: B1
Test: self-cleavage, relative activity (ratio to wild type); higher = more cleavage; in vitro, sequencing
Method in brief: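 CPEB3 self-cleaving ribozyme mutant libraries were made by rounds of error-prone PCR, barcoded, and transcribed in vitro with T7 RNA polymerase for 5 hours at 37°C. Cleavage occurred during transcription and a 15 min DNase I step before EDTA stop. RNAs were reverse transcribed with template switching and Illumina-sequenced, with DNA sequencing mapping barcodes to variants. Relative activity is the variant's cleaved/total read fraction divided by wild type's (minimum 5 reads), averaged across three batches.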

**Q.** Which self-cleavage does the source give for A3U A13C here?
**A.** 0.96

**Q.** Which self-cleavage does the source give for A3U A13G here?
**A.** 0.89

**Q.** Which self-cleavage does the source give for A3U A13U here?
**A.** 1.16

**Q.** For A3U C12A, which self-cleavage is on record?
**A.** 1.14

**Q.** With C4U G9U as the variant, how does the self-cleavage read?
**A.** 0.17

**Q.** Which self-cleavage does the source give for C4U A35G here?
**A.** 1.29

**Q.** With C4U A35U as the variant, how does the self-cleavage read?
**A.** 0.81

**Q.** With C4A C79G as the variant, how does the self-cleavage read?
**A.** 1.25

**Q.** With C4A C59A as the variant, how does the self-cleavage read?
**A.** 0.33

**Q.** With C4U A57G as the variant, how does the self-cleavage read?
**A.** 1.05

**Q.** For A3U C27U, which self-cleavage is on record?
**A.** 0.6

**Q.** Which self-cleavage does the source give for C4G A13C here?
**A.** 1.17

**Q.** With C4G A13G as the variant, how does the self-cleavage read?
**A.** 1.08

**Q.** For A3U C34U, which self-cleavage is on record?
**A.** 0.51

**Q.** For C4U A15G, which self-cleavage is on record?
**A.** 1.17

**Q.** With C4U A15U as the variant, how does the self-cleavage read?
**A.** 0.86

**Q.** Which self-cleavage does the source give for C4A A21G here?
**A.** 0.92

**Q.** For C4U A75G, which self-cleavage is on record?
**A.** 1.15

**Q.** For A3U U66C, which self-cleavage is on record?
**A.** 0.55

**Q.** Which self-cleavage does the source give for A3G G70A here?
**A.** 0.69

**Q.** Which self-cleavage does the source give for A3U U74A here?
**A.** 1.26

**Q.** For A3U C44U, which self-cleavage is on record?
**A.** 0.73

**Q.** With A3G U67A as the variant, how does the self-cleavage read?
**A.** 0.52

**Q.** With A3G U67C as the variant, how does the self-cleavage read?
**A.** 0.33

**Q.** With A3G U67G as the variant, how does the self-cleavage read?
**A.** 0.37

**Q.** For C4U C17U, which self-cleavage is on record?
**A.** 1.05

**Q.** Which self-cleavage does the source give for C4U C23G here?
**A.** 0.53

**Q.** With C4A U80C as the variant, how does the self-cleavage read?
**A.** 1.11

**Q.** With C4A U80A as the variant, how does the self-cleavage read?
**A.** 1.06

**Q.** Which self-cleavage does the source give for C4U U31C here?
**A.** 1.11

**Q.** For C4U U31A, which self-cleavage is on record?
**A.** 0.82

**Q.** With A3U G19U as the variant, how does the self-cleavage read?
**A.** 0.4

**Q.** With A3U U41C as the variant, how does the self-cleavage read?
**A.** 1.05

**Q.** With A3U U41A as the variant, how does the self-cleavage read?
**A.** 0.31

**Q.** Which self-cleavage does the source give for A3U G52A here?
**A.** 1.1

**Q.** For A3U U76G, which self-cleavage is on record?
**A.** 1.13

**Q.** With C4A U25C as the variant, how does the self-cleavage read?
**A.** 0.52

**Q.** For A3U G10A, which self-cleavage is on record?
**A.** 0.1

**Q.** For A3U G10U, which self-cleavage is on record?
**A.** 0.19

**Q.** For C4U C29U, which self-cleavage is on record?
**A.** 0.72

**Q.** With C4U G7C as the variant, how does the self-cleavage read?
**A.** 0.13

**Q.** Which self-cleavage does the source give for C4G U69C here?
**A.** 0.95

**Q.** Which self-cleavage does the source give for C4A U72C here?
**A.** 1.22

**Q.** With C4A U72A as the variant, how does the self-cleavage read?
**A.** 0.42

**Q.** With A3U C68G as the variant, how does the self-cleavage read?
**A.** 0.44

**Q.** For A3U C68A, which self-cleavage is on record?
**A.** 0.44

**Q.** For A3U G16A, which self-cleavage is on record?
**A.** 0.43

**Q.** For A3G G22A, which self-cleavage is on record?
**A.** 0.29

**Q.** For A3G G22U, which self-cleavage is on record?
**A.** 0.15

**Q.** With A3G G61U as the variant, how does the self-cleavage read?
**A.** 0.8

**Q.** For A3G G61A, which self-cleavage is on record?
**A.** 0.53

**Q.** For C4U U66C, which self-cleavage is on record?
**A.** 0.59

**Q.** Which self-cleavage does the source give for C4A U58A here?
**A.** 0.67

**Q.** Which self-cleavage does the source give for C4A U58C here?
**A.** 0.76

**Q.** Which self-cleavage does the source give for A3G U48C here?
**A.** 0.61

**Q.** Which self-cleavage does the source give for A3G U48A here?
**A.** 0.37

**Q.** For A3G U48G, which self-cleavage is on record?
**A.** 0.54

**Q.** With A3G G52A as the variant, how does the self-cleavage read?
**A.** 1.14

**Q.** For A3G G52U, which self-cleavage is on record?
**A.** 1.14

**Q.** With A3U A47U as the variant, how does the self-cleavage read?
**A.** 0.71

**Q.** With A3U A47C as the variant, how does the self-cleavage read?
**A.** 0.69

**Q.** Which self-cleavage does the source give for A3U A47G here?
**A.** 1.17

**Q.** With A3U G36A as the variant, how does the self-cleavage read?
**A.** 0.32

**Q.** For A3G U25C, which self-cleavage is on record?
**A.** 0.42

**Q.** Which self-cleavage does the source give for A3G U25G here?
**A.** 0.45

**Q.** With A3G U25A as the variant, how does the self-cleavage read?
**A.** 0.63

**Q.** Which self-cleavage does the source give for A3U here?
**A.** 1.06

**Q.** Which self-cleavage does the source give for A3U U80C here?
**A.** 0.85

**Q.** Which self-cleavage does the source give for A3U U80A here?
**A.** 1.23

**Q.** With A3G U26A as the variant, how does the self-cleavage read?
**A.** 0.9

**Q.** For A3G U26C, which self-cleavage is on record?
**A.** 0.65

**Q.** For C4U A47G, which self-cleavage is on record?
**A.** 1.15

**Q.** Which self-cleavage does the source give for A3U C71U here?
**A.** 0.83

**Q.** For A3G U58C, which self-cleavage is on record?
**A.** 0.54

**Q.** With A3G U58A as the variant, how does the self-cleavage read?
**A.** 0.43

**Q.** For A3G U58G, which self-cleavage is on record?
**A.** 0.39

**Q.** With C4A U74C as the variant, how does the self-cleavage read?
**A.** 1.22

**Q.** For C4G A21G, which self-cleavage is on record?
**A.** 1.14

**Q.** Which self-cleavage does the source give for A3U G61C here?
**A.** 0.5

**Q.** Which self-cleavage does the source give for A3U G61A here?
**A.** 1.01

**Q.** Which self-cleavage does the source give for A3G G8U here?
**A.** 0.34

**Q.** Which self-cleavage does the source give for C4G G8C here?
**A.** 0.66

**Q.** For C4G G55U, which self-cleavage is on record?
**A.** 1.12
